From paper PMC2935145 come the findings set out here.

The target of the experiment is Hr domain from the Acidothermus cellulolyticus P_(1B-5)-ATPase (P_(1B-5)-Hr) (Acidothermus cellulolyticus 11B). As to the kind of experiment: SEC. A general note: In gel filtration, larger molecules generally elute earlier.

One may read the stoichiometry N as the number of molecules, sites or subunits per partner or assembly. The substance “Hr domain from the Acidothermus cellulolyticus P_(1B-5)-ATPase (P_(1B-5)-Hr) (domain or fragment)” returned a stoichiometry N of 2.
